Reference: paper PMC6770530, “Tumor Uptake of Triazine Dendrimers Decorated with Four, Sixteen, and Sixty-Four PSMA-Targeted Ligands: Passive versus Active Tumor Targeting” (Biomolecules, 2019)
Read-outs that look alike come from different tables or passages of the source.

Key:
PSMA [1] = biological target: T1, PSMA (Homo sapiens, UniProt Q04609); set-up: method as in PMID 15027864, PMID 25822623; conditions: cited from earlier work
T1 construct: expressed in transfected cells; host or cells: PC3-PIP cells (PSMA positive)

[2] = mouse, in vivo, iv, 64Cu-labeled dendrimer; for tissue uptake at 1 h: 1 h p.i.; for tissue uptake at 4 h: 4 h p.i.
[3] = tested on: PC3-PIP (PSMA positive) and PC3-FLU (PSMA negative) cells; assay: Cell uptake of 64Cu-labeled dendrimers in PC3-PIP and PC3-FLU cells; type: cell-based; conditions: 64Cu-labeled dendrimer, 1 h at 37 °C, n = 3
Description: Cell uptake experiments were conducted in the PSMA positive PC3-PIP cell lines and the PSMA negative PC-FLU cell lines. The cells (5.0 × 10^5) were seeded to a 6-well plate and incubated at 37 °C overnight in a humidified incubator with 5% CO2. After being rinsed with binding buffer (20 mM Tris, 150 mM NaCl, pH 7.4), the cells in binding buffer (500 µL) were incubated at 37 °C with ~6.0 × 10^5 CPM of ^64Cu-labeled dendrimers for 1 h, washed with cold binding buffer, and then trypsinized. The radioactivity of trypsinized cells was counted on a 2480 automatic gamma counter (PerkinElmer).

[4] = Serum stability assay of 64Cu-labeled dendrimers; type: in vitro ADME, rat
Description: The stability of ^64Cu-labeled dendrimers was evaluated in rat serum. […] An aliquot of sample (10 µL) was mixed with 5 mM EDTA (100-fold molar excess) and incubated at 37 °C for 10 min. The resulting solution was analyzed by a Rita Star Radioisotope TLC Analyzer.

[5] = set-up: method as in PMID 23398590; conditions: estimated by dynamic light scattering of unfunctionalized analogues; cited from earlier work
PC3-PIP cells = assay: Internalization of 64Cu-labeled dendrimers in PC3-PIP cells; type: cell-based; conditions: 64Cu-labeled dendrimer, incubation 1-120 min
Description: The PC3-PIP cells were used for the internalization study. The 12-well plates containing ~2.0 × 10^5 cells were incubated overnight in a humidified incubator at 37 °C with 5% CO2 and then washed with binding buffer (20 mM Tris, 150 mM NaCl, pH 7.4). Each solution of ^64Cu-labeled dendrimers (~6.0 × 10^5 CPM) in 0.4 mL of binding buffer was incubated with the cells for 1, 10, 30, 60, and 120 min, respectively, and then washed once with ice-cold binding buffer. The surface bound ^64Cu-labeled dendrimers were removed by incubating cells twice for 5 min with 0.5 mL of ice-cold low pH stripping buffer (150 mM NaCl, 50 mM glycine, pH 3.0) and collected in a culture tube. After incubation with 0.5 mL of 4 M NaOH at 37 °C for 15 min, the NaOH-solubilized cells were collected in separate culture tubes. The radioactivity of surface bound/internalized ^64Cu-labeled dendrimers was counted on a 2480 automatic gamma counter (PerkinElmer).

PSMA [6] = biological target: T1, PSMA; assay: Competitive cell-binding assay with 125I-labeled PSMA radioligand in PC3-PIP cells; conditions: read-out: IC50 (displacing 50% of the 125I-labeled PSMA radioligand bound to PC3-PIP cells), room temperature 2 h, n = 4
Description: A reported PSMA ^125I-radioligand [21] was used as a PSMA-specific radioligand in the assay. PC3-PIP cells were suspended in Tris-buffered saline (TBS) and seeded on multiwell DV plates (Millipore) with 5 × 10^4 cells per well. […] The unbound ^125I-radioligand was removed by filtration. The wells were rinsed five times with cold TBS buffer. The filters were then collected and their radioactivity was measured on a 2480 automatic gamma counter (PerkinElmer).

[7] = tested on: SCID mice bearing PC3-PIP and PC3-FLU xenografts; conditions: 64Cu-labeled dendrimer, i.v., 4 h p.i.
[8] = In vivo organ uptake, Left Kidney
[9] = In vivo organ uptake, Right Kidney
[10] = In vivo tumor uptake, PC3-FLU, PSMA negative xenograft right shoulder
[11] = In vivo tumor uptake, PC3-PIP, PSMA positive xenograft left shoulder

T1 sequence (Q04609 whole entry): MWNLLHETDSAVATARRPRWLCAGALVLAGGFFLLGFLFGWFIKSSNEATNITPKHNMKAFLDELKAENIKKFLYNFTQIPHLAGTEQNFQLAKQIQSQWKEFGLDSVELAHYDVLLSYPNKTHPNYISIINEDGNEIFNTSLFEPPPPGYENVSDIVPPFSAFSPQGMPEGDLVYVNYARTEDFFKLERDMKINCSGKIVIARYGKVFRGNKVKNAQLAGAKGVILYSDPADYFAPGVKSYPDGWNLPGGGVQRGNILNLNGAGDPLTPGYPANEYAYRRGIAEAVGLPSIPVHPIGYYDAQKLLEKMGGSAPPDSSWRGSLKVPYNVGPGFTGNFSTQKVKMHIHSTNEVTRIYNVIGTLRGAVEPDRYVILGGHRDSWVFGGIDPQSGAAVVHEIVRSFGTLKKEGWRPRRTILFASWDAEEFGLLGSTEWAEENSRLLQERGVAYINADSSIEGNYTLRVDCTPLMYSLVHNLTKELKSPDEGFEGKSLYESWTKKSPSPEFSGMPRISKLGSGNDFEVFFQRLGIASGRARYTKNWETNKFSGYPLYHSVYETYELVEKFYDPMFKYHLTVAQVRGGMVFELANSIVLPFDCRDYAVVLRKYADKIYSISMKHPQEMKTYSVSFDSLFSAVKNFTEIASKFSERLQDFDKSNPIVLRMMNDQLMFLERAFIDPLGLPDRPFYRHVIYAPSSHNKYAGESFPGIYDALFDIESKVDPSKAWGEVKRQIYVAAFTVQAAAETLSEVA

O=C(O)CCC(NC(=O)NC(CCC(=O)O)C(=O)O)C(=O)O (stereo not shown) [DUPA, 2-[3-(1,3-dicarboxypropyl)-ureido] pentanedioic acid]
IC50 (PSMA [1]): 47 nM
Ki (PSMA [1]): 8 nM

NCC1CCN(c2nc(NCCCOCCOCCOCCCNC(=O)CCCCCCCNC(=O)CC[C@H](NC(=O)N[C@@H](CCC(=O)O)C(=O)O)C(=O)O)nc(N3CCN(c4nc(NCCCOCCOCCOCCCNc5nc(NCCCOCCOCCOCCCNC(=O)CCC(C(=O)O)N6CCN(CC(=O)O)CCN(CC(=O)O)CCN(CC(=O)O)CC6)nc(NCCCOCCOCCOCCCNc6nc(N7CCN(c8nc(NCCCOCCOCCOCCCNC(=O)CCCCCCCNC(=O)CC[C@H](NC(=O)N[C@@H](CCC(=O)O)C(=O)O)C(=O)O)nc(N9CCC(CN)CC9)n8)CC7)nc(N7CCN(c8nc(NCCCOCCOCCOCCCNC(=O)CCCCCCCNC(=O)CC[C@H](NC(=O)N[C@@H](CCC(=O)O)C(=O)O)C(=O)O)nc(N9CCC(CN)CC9)n8)CC7)n6)n5)nc(N5CCN(c6nc(NCCCOCCOCCOCCCNC(=O)CCCCCCCNC(=O)CC[C@H](NC(=O)N[C@@H](CCC(=O)O)C(=O)O)C(=O)O)nc(N7CCC(CN)CC7)n6)CC5)n4)CC3)n2)CC1 (stereo partly shown) [G1-(DUPA)4]
tissue uptake at 1 h ([2]; In vivo organ uptake, Bone): 0.08 ± 0.03 %ID/g
tissue uptake at 4 h ([2]; In vivo organ uptake, Bone): 0.07 ± 0.01 %ID/g
tissue uptake at 24 h ([2]; In vivo organ uptake, Bone, 24 h p.i.): 0.08 ± 0.02 %ID/g
tissue uptake at 1 h ([2]; In vivo organ uptake, Brain): 0.03 ± 0.01 %ID/g
tissue uptake at 4 h ([2]; In vivo organ uptake, Brain): 0.02 %ID/g
tissue uptake at 24 h ([2]; In vivo organ uptake, Brain, 24 h p.i.): 0.07 %ID/g
tissue uptake at 1 h ([2]; In vivo organ uptake, Heart): 0.16 ± 0.05 %ID/g
tissue uptake at 4 h ([2]; In vivo organ uptake, Heart): 0.1 ± 0.02 %ID/g
tissue uptake at 24 h ([2]; In vivo organ uptake, Heart, 24 h p.i.): 0.25 ± 0.05 %ID/g
tissue uptake at 1 h [2, 8]: 53.3 ± 4.37 %ID/g
tissue uptake at 4 h [2, 8]: 58.7 ± 4.98 %ID/g
tissue uptake at 24 h ([2]; In vivo organ uptake, Left Kidney, 24 h p.i.): 54 ± 5.96 %ID/g
tissue uptake at 1 h ([2]; In vivo organ uptake, Liver): 1.03 ± 0.16 %ID/g
tissue uptake at 4 h ([2]; In vivo organ uptake, Liver): 1.2 ± 0.2 %ID/g
tissue uptake at 24 h ([2]; In vivo organ uptake, Liver, 24 h p.i.): 1.93 ± 0.15 %ID/g
tissue uptake at 1 h ([2]; In vivo organ uptake, Muscle): 0.06 ± 0.03 %ID/g
tissue uptake at 4 h ([2]; In vivo organ uptake, Muscle): 0.05 ± 0.01 %ID/g
tissue uptake at 24 h ([2]; In vivo organ uptake, Muscle, 24 h p.i.): 0.13 ± 0.03 %ID/g
tissue uptake at 1 h [2, 9]: 56.8 ± 5.14 %ID/g
tissue uptake at 4 h [2, 9]: 60 ± 3.27 %ID/g
tissue uptake at 24 h ([2]; In vivo organ uptake, Right Kidney, 24 h p.i.): 55 ± 7.36 %ID/g
tissue uptake at 1 h [2, 10]: 0.18 ± 0.05 %ID/g
tissue uptake at 4 h [2, 10]: 0.13 ± 0.02 %ID/g
tissue uptake at 24 h ([2]; In vivo tumor uptake, PC3-FLU, PSMA negative xenograft right shoulder, 24 h p.i.): 0.33 ± 0.06 %ID/g
tissue uptake at 1 h [2, 11]: 0.99 ± 0.36 %ID/g
tissue uptake at 4 h [2, 11]: 0.87 ± 0.4 %ID/g
tissue uptake at 24 h ([2]; In vivo tumor uptake, PC3-PIP, PSMA positive xenograft left shoulder, 24 h p.i.): 0.81 ± 0.36 %ID/g
tissue uptake at 24 h ([2]; level of kidney uptake, over 24 h p.i.): 45 to 55 %ID/g
PC3-PIP to PC3-FLU cell uptake ratio [3]: 10
serum stability [4]: stable in rat serum and remained intact over 24 h
dimensions [5]: approximately 2 nm
highest (maximum) internalization (PC3-PIP cells): 49%
IC50 (PSMA [6]): 282 nM
PC3-PIP to PC3-FLU uptake ratio (in vivo) [7]: 6.7 ± 3.0
PC3-PIP to muscle uptake ratio [7]: 17.7 ± 5.5
